The chains are these.
B1: minF1; the commonest letter at each place (parent)
chain: GAGACCGCAACTGAAAAGTTGTTATCAGAAATGGATGGGTTGAATTTCTGCACGTAGAAGCAAAAGGC

This data set covers variants of B1. The data set is described as follows: fraction ligated after 30 min (ligated reads / total reads); higher = more ligase activity. The note with it: with F1*subA RNA substrate (template-directed ligation), 42 °C. The method in brief: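 Fraction ligated for every variant was calculated as the share of total reads that came from ligated RNA. Minimized ligase ribozyme variants were made from oligo-pool templates by PCR amplification, T7 transcription and gel purification. After gel separation of ligated and unligated RNAs, reverse transcription with barcoded primers and MiSeq sequencing followed. Only core bases at quality ≥30 passed filtering.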
In the case of GAGACCGCAACTGAAAAGTTGTTATCAGTAACGGATGGGTTGAATTTCTGCACGTAGAAGCAAAAGGC, the fraction ligated was determined as 0.0232. The result for GAGACCGCAACTGAAAAGTTGTTATCAGACATGGGTGGGTTGAATTTCTGCACGTAGAAGCAAAAGGC reads 0.159; that for GAGACCGCAACTGAAAAGTTGTTATCAGACATGGCTGGGTTGAATTTCTGCACGTAGAAGCAAAAGGC, 0.00575. The result for GAGACCGCAACTGAAAAGTTGTTATCAGACATGGTTGGGTTGAATTTCTGCACGTAGAAGCAAAAGGC reads 0.01; that for GAGACCGCAACTGAAAAGTTGTTATCAGACAGGGATGGGTTGAATTTCTGCACGTAGAAGCAAAAGGC, 0.019.

Turning to GAGACCGCAACTGAAAAGTTGTTATCAGACACGGATGGGTTGAATTTCTGCACGTAGAAGCAAAAGGC, the fraction ligated worked out at 0.00933. The result for GAGACCGCAACTGAAAAGTTGTTATCAGACAAGGATGGGTTGAATTTCTGCACGTAGAAGCAAAAGGC reads 0.0274. The value for GAGACCGCAACTGAAAAGTTGTTATCAGAGATGCATGGGTTGAATTTCTGCACGTAGAAGCAAAAGGC was 0.00227; that for GAGACCGCAACTGAAAAGTTGTTATCAGAGATGTATGGGTTGAATTTCTGCACGTAGAAGCAAAAGGC was 0.00265. The result for GAGACCGCAACTGAAAAGTTGTTATCAGAGATGAATGGGTTGAATTTCTGCACGTAGAAGCAAAAGGC reads 0.0439; that for GAGACCGCAACTGAAAAGTTGTTATCAGAGATGGATAGGTTGAATTTCTGCACGTAGAAGCAAAAGGC, 0.00857; that for GAGACCGCAACTGAAAAGTTGTTATCAGAGATGGATTGGTTGAATTTCTGCACGTAGAAGCAAAAGGC, 0.0167.

On to GAGACCGCAACTGAAAAGTTGTTATCAGAGATGGATCGGTTGAATTTCTGCACGTAGAAGCAAAAGGC, for which the fraction ligated came out at 0.00443. The value for GAGACCGCAACTGAAAAGTTGTTATCAGACATGGATGGGTTCAATTTCTGCACGTAGAAGCAAAAGGC was 0.00724.

As to GAGACCGCAACTGAAAAGTTGTTATCAGACATGGATGGGTTTAATTTCTGCACGTAGAAGCAAAAGGC, the fraction ligated was 0.0701. The result for GAGACCGCAACTGAAAAGTTGTTATCAGACATGGATGGGTTAAATTTCTGCACGTAGAAGCAAAAGGC reads 0.217; that for GAGACCGCAACTGAAAAGTTGTTATCAGATATGGCTGGGTTGAATTTCTGCACGTAGAAGCAAAAGGC, 0.0121. The result for GAGACCGCAACTGAAAAGTTGTTATCAGATATGGGTGGGTTGAATTTCTGCACGTAGAAGCAAAAGGC reads 0.161; that for GAGACCGCAACTGAAAAGTTGTTATCAGATATGGTTGGGTTGAATTTCTGCACGTAGAAGCAAAAGGC, 0.0204. The value for GAGACCGCAACTGAAAAGTTGTTATCAGAGATGGATGGGTTGAATTTCTGCACGTAGAAGCAAAAGGC was 0.807. GAGACCGCAACTGAAAAGTTGTTATCAGATATGGATGGGTTGAATTTCTGCACGTAGAAGCAAAAGGC: the fraction ligated was 0.823. The result for GAGACCGCAACTGAAAAGTTGTTATCAGACATGGATGGGTTGAATTTCTGCACGTAGAAGCAAAAGGC reads 0.806; that for GAGACCGCAACTGAAAAGTTGTTATCAGAGATGGATGGGTTAAATTTCTGCACGTAGAAGCAAAAGGC, 0.487. The value for GAGACCGCAACTGAAAAGTTGTTATCAGAGATGGATGGGTTCAATTTCTGCACGTAGAAGCAAAAGGC was 0.0189. The value for GAGACCGCAACTGAAAAGTTGTTATCAGAGATGGATGGGTTTAATTTCTGCACGTAGAAGCAAAAGGC was 0.215; that for GAGACCGCAACTGAAAAGTTGTTATCAGAGATGGGTGGGTTGAATTTCTGCACGTAGAAGCAAAAGGC was 0.4.

For GAGACCGCAACTGAAAAGTTGTTATCAGAGATGGTTGGGTTGAATTTCTGCACGTAGAAGCAAAAGGC, the fraction ligated came to 0.0595. The result for GAGACCGCAACTGAAAAGTTGTTATCAGAGATGGCTGGGTTGAATTTCTGCACGTAGAAGCAAAAGGC reads 0.0448; that for GAGACCGCAACTGAAAAGTTGTTATCAGTAATGGAGGGGTTGAATTTCTGCACGTAGAAGCAAAAGGC, 0.0504.

As for GAGACCGCAACTGAAAAGTTGTTATCAGTAATGGACGGGTTGAATTTCTGCACGTAGAAGCAAAAGGC, the fraction ligated amounted to 0.0219. The result for GAGACCGCAACTGAAAAGTTGTTATCAGTAATGGAAGGGTTGAATTTCTGCACGTAGAAGCAAAAGGC reads 0.0343; that for GAGACCGCAACTGAAAAGTTGTTATCAGACATGGATGGGTTGACTTTCTGCACGTAGAAGCAAAAGGC, 0.565.

For the variant GAGACCGCAACTGAAAAGTTGTTATCAGACATGGATGGGTTGATTTTCTGCACGTAGAAGCAAAAGGC, the fraction ligated was found to be 0.703. The value for GAGACCGCAACTGAAAAGTTGTTATCAGACATGGATGGGTTGAGTTTCTGCACGTAGAAGCAAAAGGC was 0.686. The result for GAGACCGCAACTGAAAAGTTGTTATCAGAGATGGAAGGGTTGAATTTCTGCACGTAGAAGCAAAAGGC reads 0.0286; that for GAGACCGCAACTGAAAAGTTGTTATCAGAGATGGACGGGTTGAATTTCTGCACGTAGAAGCAAAAGGC, 0.0152. On to GAGACCGCAACTGAAAAGTTGTTATCAGAGATGGAGGGGTTGAATTTCTGCACGTAGAAGCAAAAGGC, for which the fraction ligated worked out at 0.0634. In the case of GAGACCGCAACTGAAAAGTTGTTATCAGAGATTGATGGGTTGAATTTCTGCACGTAGAAGCAAAAGGC, the fraction ligated amounted to 0.672. For GAGACCGCAACTGAAAAGTTGTTATCAGAGATCGATGGGTTGAATTTCTGCACGTAGAAGCAAAAGGC, the fraction ligated turned out to be 0.805. The value for GAGACCGCAACTGAAAAGTTGTTATCAGAGATAGATGGGTTGAATTTCTGCACGTAGAAGCAAAAGGC was 0.821.

Values taken from the supplement of paper PMC6755084.
